Laboratory results reported in patent US20250222128A1 (Zymeworks, published 2025).

How the values were obtained:
[1] = biological target: T1, c-Met (hepatocyte growth factor receptor, HGFR), endogenous on tumour cell lines (UniProt P08581 25-1390, limits assumed); test: apparent Kd, flow cytometry on SNU-5 cells (endogenous cMet)
T1 construct: whole, on cells
Description: (§1) Briefly, cells were seeded at 50,000 cells/well in V-bottom 96-well plates and treated with antibody for 24 hours at 4° C. to prevent internalization. Following incubation, cells were washed and stained with anti-human IgG Fc AF647 conjugate (Jackson ImmunoResearch Laboratories, Inc., West Grove, PA; Cat. No. 109-605-098) at 4° C. for 30 min. Following incubation and washing, fluorescence was detected by flow cytometry on a BD LSRFortessa™ Cell Analyzer (BD Biosciences, Franklin Lake, NJ) with 1,000 minimum events collected per well. AF647/APC-A GeoMean (fluorescence signal geometric mean, proportional to anti-Human AF647 binding) in live cell population was plotted using GraphPad Prism Version 8 (GraphPad Software, San Diego, CA).
(§2) Cellular binding was determined as described in Example 10.

[2] = biological target: T1, c-Met (hepatocyte growth factor …); test: flow cytometry on H292 cells (endogenous cMet), as in Example 10
Description: as §1, §2

[3] = biological target: T1, c-Met (hepatocyte growth factor …); test: flow cytometry on SNU-5 cells (endogenous cMet), as in Example 10
Description: as §1, §2

[4] = biological target: T1, c-Met (hepatocyte growth factor …); test: apparent Kd, flow cytometry on H292 cells (endogenous cMet)
Description: as §1, §2

[5] = biological target: T1, c-Met (hepatocyte growth factor …); test: apparent Kd, flow cytometry on SNU-5 cells (endogenous cMet); remark: listed apart in the source
Description: as §1

[6] = biological target: T1, c-Met (hepatocyte growth factor …); test: apparent Kd, flow cytometry on H292 cells (endogenous cMet); remark: listed apart in the source
Description: as §1

[7] = biological target: T1, c-Met (hepatocyte growth factor …); test: flow cytometry on H292 cells (endogenous cMet), 24 h at 4 C, anti-human IgG Fc AF647
Description: as §1

[8] = biological target: T1, c-Met (hepatocyte growth factor …); test: flow cytometry on SNU-5 cells (endogenous cMet), 24 h at 4 C, anti-human IgG Fc AF647
Description: as §1

T1 sequence (P08581 25-1390 limits assumed): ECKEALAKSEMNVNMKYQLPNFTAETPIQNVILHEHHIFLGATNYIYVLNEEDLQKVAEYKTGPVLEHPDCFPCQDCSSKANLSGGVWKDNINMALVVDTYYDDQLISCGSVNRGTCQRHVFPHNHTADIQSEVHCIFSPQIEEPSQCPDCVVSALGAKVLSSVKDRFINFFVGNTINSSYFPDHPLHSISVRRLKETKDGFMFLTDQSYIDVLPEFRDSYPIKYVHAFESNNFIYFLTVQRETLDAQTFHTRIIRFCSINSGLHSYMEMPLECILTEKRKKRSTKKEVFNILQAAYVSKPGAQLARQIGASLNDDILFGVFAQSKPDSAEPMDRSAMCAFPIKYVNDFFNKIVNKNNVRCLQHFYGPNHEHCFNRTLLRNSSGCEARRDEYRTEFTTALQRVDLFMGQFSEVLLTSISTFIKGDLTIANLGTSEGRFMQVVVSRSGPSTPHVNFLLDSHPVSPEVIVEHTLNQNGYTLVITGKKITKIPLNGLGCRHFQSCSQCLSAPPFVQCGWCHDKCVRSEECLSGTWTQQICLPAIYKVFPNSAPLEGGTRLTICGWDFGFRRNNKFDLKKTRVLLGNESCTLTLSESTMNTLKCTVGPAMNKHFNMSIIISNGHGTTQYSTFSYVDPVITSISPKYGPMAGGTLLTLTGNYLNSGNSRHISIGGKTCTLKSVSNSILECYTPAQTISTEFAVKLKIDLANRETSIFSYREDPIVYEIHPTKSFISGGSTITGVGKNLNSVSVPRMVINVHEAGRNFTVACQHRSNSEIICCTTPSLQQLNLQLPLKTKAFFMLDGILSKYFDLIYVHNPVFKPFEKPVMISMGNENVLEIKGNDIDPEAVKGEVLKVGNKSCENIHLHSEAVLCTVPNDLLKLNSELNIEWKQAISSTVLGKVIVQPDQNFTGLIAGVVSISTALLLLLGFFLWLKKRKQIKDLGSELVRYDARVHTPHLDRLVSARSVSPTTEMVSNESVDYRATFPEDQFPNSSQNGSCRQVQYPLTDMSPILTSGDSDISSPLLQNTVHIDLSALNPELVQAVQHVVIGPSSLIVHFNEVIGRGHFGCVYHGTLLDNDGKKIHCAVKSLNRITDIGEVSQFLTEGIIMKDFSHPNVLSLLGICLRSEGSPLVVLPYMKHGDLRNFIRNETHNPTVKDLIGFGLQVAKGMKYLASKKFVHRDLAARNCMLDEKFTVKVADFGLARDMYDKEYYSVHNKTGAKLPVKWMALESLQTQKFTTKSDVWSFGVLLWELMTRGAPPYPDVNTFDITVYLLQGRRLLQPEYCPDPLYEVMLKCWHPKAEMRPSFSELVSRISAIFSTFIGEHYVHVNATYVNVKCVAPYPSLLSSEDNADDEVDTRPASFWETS

B1: v29001 (telisotuzumab paratope, HetFc, unmodified hinge, two cysteine insertions between T299 and Y300) (antibody, human IgG1, kappa)
heavy 1: QVQLVQSGAEVKKPGASVKVSCKASGYIFTAYTMHWVRQAPGQGLEWMGWIKPNNGLANYAQKFQGRVTMTRDTSISTAYMELSRLRSDDTAVYYCARSEITTEFDYWGQGTLVTVSSASTKGPSVFPLAPSSKSTSGGTAALGCLVKDYFPEPVTVSWNSGALTSGVHTFPAVLQSSGLYSLSSVVTVPSSSLGTQTYICNVNHKPSNTKVDKKVEPKSCDKTHTCPPCPAPELLGGPSVFLFPPKPKDTLMISRTPEVTCVVVDVSHEDPEVKFNWYVDGVEVHNAKTKPREEQYNSTCYRVVSVLTVLHQDWLNGKEYKCKVSNKALPAPIEKTISKAKGQPREPQVYVYPPSRDELTKNQVSLTCLVKGFYPSDIAVEWESNGQPENNYKTTPPVLDSDGSFALVSKLTVDKSRWQQGNVFSCSVMHEALHNHYTQKSLSLSPG
heavy 2: QVQLVQSGAEVKKPGASVKVSCKASGYIFTAYTMHWVRQAPGQGLEWMGWIKPNNGLANYAQKFQGRVTMTRDTSISTAYMELSRLRSDDTAVYYCARSEITTEFDYWGQGTLVTVSSASTKGPSVFPLAPSSKSTSGGTAALGCLVKDYFPEPVTVSWNSGALTSGVHTFPAVLQSSGLYSLSSVVTVPSSSLGTQTYICNVNHKPSNTKVDKKVEPKSCDKTHTCPPCPAPELLGGPSVFLFPPKPKDTLMISRTPEVTCVVVDVSHEDPEVKFNWYVDGVEVHNAKTKPREEQYNSTCYRVVSVLTVLHQDWLNGKEYKCKVSNKALPAPIEKTISKAKGQPREPQVYVLPPSRDELTKNQVSLLCLVKGFYPSDIAVEWESNGQPENNYLTWPPVLDSDGSFFLYSKLTVDKSRWQQGNVFSCSVMHEALHNHYTQKSLSLSPG
light: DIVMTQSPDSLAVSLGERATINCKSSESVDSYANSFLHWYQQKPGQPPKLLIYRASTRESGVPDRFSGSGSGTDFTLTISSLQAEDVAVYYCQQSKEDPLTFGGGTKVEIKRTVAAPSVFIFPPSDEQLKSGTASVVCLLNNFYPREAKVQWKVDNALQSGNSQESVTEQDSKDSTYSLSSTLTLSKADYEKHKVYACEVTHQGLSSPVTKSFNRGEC
notes: also called variant v29001; cysteine insertion variant v29001
With B1 the Kd [1] was 0.428 nM, the Bmax [2] was 2040 AF647 GeoMean fluorescence and the Bmax [3] was 32100 AF647 GeoMean fluorescence. For the same binder, the Kd [4] was 0.024 nM.

B2: v29001-Drug-Linker 003 DAR 4 (antibody, human IgG1, kappa)
heavy 1: QVQLVQSGAEVKKPGASVKVSCKASGYIFTAYTMHWVRQAPGQGLEWMGWIKPNNGLANYAQKFQGRVTMTRDTSISTAYMELSRLRSDDTAVYYCARSEITTEFDYWGQGTLVTVSSASTKGPSVFPLAPSSKSTSGGTAALGCLVKDYFPEPVTVSWNSGALTSGVHTFPAVLQSSGLYSLSSVVTVPSSSLGTQTYICNVNHKPSNTKVDKKVEPKSCDKTHTCPPCPAPELLGGPSVFLFPPKPKDTLMISRTPEVTCVVVDVSHEDPEVKFNWYVDGVEVHNAKTKPREEQYNSTCYRVVSVLTVLHQDWLNGKEYKCKVSNKALPAPIEKTISKAKGQPREPQVYVYPPSRDELTKNQVSLTCLVKGFYPSDIAVEWESNGQPENNYKTTPPVLDSDGSFALVSKLTVDKSRWQQGNVFSCSVMHEALHNHYTQKSLSLSPG
heavy 2: QVQLVQSGAEVKKPGASVKVSCKASGYIFTAYTMHWVRQAPGQGLEWMGWIKPNNGLANYAQKFQGRVTMTRDTSISTAYMELSRLRSDDTAVYYCARSEITTEFDYWGQGTLVTVSSASTKGPSVFPLAPSSKSTSGGTAALGCLVKDYFPEPVTVSWNSGALTSGVHTFPAVLQSSGLYSLSSVVTVPSSSLGTQTYICNVNHKPSNTKVDKKVEPKSCDKTHTCPPCPAPELLGGPSVFLFPPKPKDTLMISRTPEVTCVVVDVSHEDPEVKFNWYVDGVEVHNAKTKPREEQYNSTCYRVVSVLTVLHQDWLNGKEYKCKVSNKALPAPIEKTISKAKGQPREPQVYVLPPSRDELTKNQVSLLCLVKGFYPSDIAVEWESNGQPENNYLTWPPVLDSDGSFFLYSKLTVDKSRWQQGNVFSCSVMHEALHNHYTQKSLSLSPG
light: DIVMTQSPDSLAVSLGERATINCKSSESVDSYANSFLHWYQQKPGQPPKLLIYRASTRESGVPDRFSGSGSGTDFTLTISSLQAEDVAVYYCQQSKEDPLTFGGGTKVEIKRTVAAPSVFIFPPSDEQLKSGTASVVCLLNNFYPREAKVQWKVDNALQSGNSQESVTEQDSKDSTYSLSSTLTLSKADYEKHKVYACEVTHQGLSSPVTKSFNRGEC
modifications: bivalent Drug-Linker 003 on the cysteine inserted between T299 and Y300 (EU); bivalent Drug-Linker 003 (two Compound 1) on the cysteine inserted between T299 and Y300 (EU)
notes: Site-specific cysteine-conjugated antibody-drug conjugate of v29001
B2 was tested, and the Kd [1] was 1.13 nM, the Bmax [2] was 2048 AF647 GeoMean fluorescence and the Bmax [3] was 38600 AF647 GeoMean fluorescence. The Kd [4] was 0.03 nM.

B3: v29001-Drug-Linker 001 DAR 2 (antibody, human IgG1, kappa)
heavy 1: QVQLVQSGAEVKKPGASVKVSCKASGYIFTAYTMHWVRQAPGQGLEWMGWIKPNNGLANYAQKFQGRVTMTRDTSISTAYMELSRLRSDDTAVYYCARSEITTEFDYWGQGTLVTVSSASTKGPSVFPLAPSSKSTSGGTAALGCLVKDYFPEPVTVSWNSGALTSGVHTFPAVLQSSGLYSLSSVVTVPSSSLGTQTYICNVNHKPSNTKVDKKVEPKSCDKTHTCPPCPAPELLGGPSVFLFPPKPKDTLMISRTPEVTCVVVDVSHEDPEVKFNWYVDGVEVHNAKTKPREEQYNSTCYRVVSVLTVLHQDWLNGKEYKCKVSNKALPAPIEKTISKAKGQPREPQVYVYPPSRDELTKNQVSLTCLVKGFYPSDIAVEWESNGQPENNYKTTPPVLDSDGSFALVSKLTVDKSRWQQGNVFSCSVMHEALHNHYTQKSLSLSPG
heavy 2: QVQLVQSGAEVKKPGASVKVSCKASGYIFTAYTMHWVRQAPGQGLEWMGWIKPNNGLANYAQKFQGRVTMTRDTSISTAYMELSRLRSDDTAVYYCARSEITTEFDYWGQGTLVTVSSASTKGPSVFPLAPSSKSTSGGTAALGCLVKDYFPEPVTVSWNSGALTSGVHTFPAVLQSSGLYSLSSVVTVPSSSLGTQTYICNVNHKPSNTKVDKKVEPKSCDKTHTCPPCPAPELLGGPSVFLFPPKPKDTLMISRTPEVTCVVVDVSHEDPEVKFNWYVDGVEVHNAKTKPREEQYNSTCYRVVSVLTVLHQDWLNGKEYKCKVSNKALPAPIEKTISKAKGQPREPQVYVLPPSRDELTKNQVSLLCLVKGFYPSDIAVEWESNGQPENNYLTWPPVLDSDGSFFLYSKLTVDKSRWQQGNVFSCSVMHEALHNHYTQKSLSLSPG
light: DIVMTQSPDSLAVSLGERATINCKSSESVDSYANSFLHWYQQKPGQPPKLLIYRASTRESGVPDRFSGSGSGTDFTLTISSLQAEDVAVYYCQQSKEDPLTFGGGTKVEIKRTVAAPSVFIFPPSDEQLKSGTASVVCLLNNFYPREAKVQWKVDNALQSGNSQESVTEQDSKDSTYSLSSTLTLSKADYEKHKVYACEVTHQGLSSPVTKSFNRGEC
modifications: Drug-Linker 001 on the cysteine inserted between T299 and Y300 (EU); Drug-Linker 001 (auristatin analogue Compound 1) on the cysteine inserted between T299 and Y300 (EU)
notes: as for B2
In the case of B3, the Kd [1] is reported as 0.584 nM, the Bmax [2] is reported as 2070 AF647 GeoMean fluorescence and the Bmax [3] is reported as 35800 AF647 GeoMean fluorescence. The Kd [4] was 0.064 nM.

B4: v29001-Drug-Linker 004 DAR 6 (antibody, human IgG1, kappa)
heavy 1: QVQLVQSGAEVKKPGASVKVSCKASGYIFTAYTMHWVRQAPGQGLEWMGWIKPNNGLANYAQKFQGRVTMTRDTSISTAYMELSRLRSDDTAVYYCARSEITTEFDYWGQGTLVTVSSASTKGPSVFPLAPSSKSTSGGTAALGCLVKDYFPEPVTVSWNSGALTSGVHTFPAVLQSSGLYSLSSVVTVPSSSLGTQTYICNVNHKPSNTKVDKKVEPKSCDKTHTCPPCPAPELLGGPSVFLFPPKPKDTLMISRTPEVTCVVVDVSHEDPEVKFNWYVDGVEVHNAKTKPREEQYNSTCYRVVSVLTVLHQDWLNGKEYKCKVSNKALPAPIEKTISKAKGQPREPQVYVYPPSRDELTKNQVSLTCLVKGFYPSDIAVEWESNGQPENNYKTTPPVLDSDGSFALVSKLTVDKSRWQQGNVFSCSVMHEALHNHYTQKSLSLSPG
heavy 2: QVQLVQSGAEVKKPGASVKVSCKASGYIFTAYTMHWVRQAPGQGLEWMGWIKPNNGLANYAQKFQGRVTMTRDTSISTAYMELSRLRSDDTAVYYCARSEITTEFDYWGQGTLVTVSSASTKGPSVFPLAPSSKSTSGGTAALGCLVKDYFPEPVTVSWNSGALTSGVHTFPAVLQSSGLYSLSSVVTVPSSSLGTQTYICNVNHKPSNTKVDKKVEPKSCDKTHTCPPCPAPELLGGPSVFLFPPKPKDTLMISRTPEVTCVVVDVSHEDPEVKFNWYVDGVEVHNAKTKPREEQYNSTCYRVVSVLTVLHQDWLNGKEYKCKVSNKALPAPIEKTISKAKGQPREPQVYVLPPSRDELTKNQVSLLCLVKGFYPSDIAVEWESNGQPENNYLTWPPVLDSDGSFFLYSKLTVDKSRWQQGNVFSCSVMHEALHNHYTQKSLSLSPG
light: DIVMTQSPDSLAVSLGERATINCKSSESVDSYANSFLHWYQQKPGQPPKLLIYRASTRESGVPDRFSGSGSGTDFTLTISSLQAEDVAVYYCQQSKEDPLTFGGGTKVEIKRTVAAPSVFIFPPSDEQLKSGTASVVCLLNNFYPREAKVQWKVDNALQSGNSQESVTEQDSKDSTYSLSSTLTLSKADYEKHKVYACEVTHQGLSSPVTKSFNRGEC
modifications: trivalent Drug-Linker 004 on the cysteine inserted between T299 and Y300 (EU); trivalent Drug-Linker 004 (three Compound 1) on the cysteine inserted between T299 and Y300 (EU)
notes: as for B2
For B4, the Kd [1] was 0.615 nM, the Bmax [2] was 2010 AF647 GeoMean fluorescence and the Bmax [3] was 37700 AF647 GeoMean fluorescence. It also gave a Kd [4] of 0.028 nM.

B5: v32634 (telisotuzumab paratope, HomoFc, unmodified hinge, full-size IgG1 antibody) (antibody, V domains shown)
VH: QVQLVQSGAEVKKPGASVKVSCKASGYIFTAYTMHWVRQAPGQGLEWMGWIKPNNGLANYAQKFQGRVTMTRDTSISTAYMELSRLRSDDTAVYYCARSEITTEFDYWGQGTLVTVSS
VL: DIVMTQSPDSLAVSLGERATINCKSSESVDSYANSFLHWYQQKPGQPPKLLIYRASTRESGVPDRFSGSGSGTDFTLTISSLQAEDVAVYYCQQSKEDPLTFGGGTKVEIKR
notes: also called variant v32634; unconjugated HomoFc variant
For B5, the Kd [5] was 0.59 nM, the Kd [6] was 0.02 nM and the Bmax [7] was 2240 AF647 GeoMean fluorescence. For the same binder, the Bmax [8] was 37200 AF647 GeoMean fluorescence.

B6: v32634-Drug-Linker 002 DAR4 (antibody, V domains shown)
VH: QVQLVQSGAEVKKPGASVKVSCKASGYIFTAYTMHWVRQAPGQGLEWMGWIKPNNGLANYAQKFQGRVTMTRDTSISTAYMELSRLRSDDTAVYYCARSEITTEFDYWGQGTLVTVSS
VL: DIVMTQSPDSLAVSLGERATINCKSSESVDSYANSFLHWYQQKPGQPPKLLIYRASTRESGVPDRFSGSGSGTDFTLTISSLQAEDVAVYYCQQSKEDPLTFGGGTKVEIKR
modifications: Drug-Linker 002 stochastically conjugated to lysine residues of the antibody, about DAR 4; Drug-Linker 002 (auristatin analogue Compound 1) stochastically conjugated to lysine residues of the antibody, about DAR 4
notes: Antibody-drug conjugate of v32634
In the case of B6, the Kd [5] is reported as 0.46 nM, the Bmax [7] is reported as 2130 AF647 GeoMean fluorescence and the Bmax [8] is reported as 33700 AF647 GeoMean fluorescence.

B7: v32634-Drug-Linker 002 DAR6 (antibody, V domains shown)
VH: QVQLVQSGAEVKKPGASVKVSCKASGYIFTAYTMHWVRQAPGQGLEWMGWIKPNNGLANYAQKFQGRVTMTRDTSISTAYMELSRLRSDDTAVYYCARSEITTEFDYWGQGTLVTVSS
VL: DIVMTQSPDSLAVSLGERATINCKSSESVDSYANSFLHWYQQKPGQPPKLLIYRASTRESGVPDRFSGSGSGTDFTLTISSLQAEDVAVYYCQQSKEDPLTFGGGTKVEIKR
modifications: Drug-Linker 002 stochastically conjugated to lysine residues of the antibody, about DAR 6; Drug-Linker 002 (auristatin analogue Compound 1) stochastically conjugated to lysine residues of the antibody, about DAR 6
notes: as for B6
B7 was tested, and the Kd [5] was 0.71 nM, the Bmax [7] was 2200 AF647 GeoMean fluorescence and the Bmax [8] was 41100 AF647 GeoMean fluorescence.
